Experimental data published in publication PMC9977175 (Science Advances, 2023).

Target: the molecule itself
Experiment: SEC-MALS

Protein | stoichiometry N
Trx-tagged ATG16L1(78 to 247) (domain or fragment, human, UniProt Q676U5 78-247, looked up) NDNQLQEMAQLRIKHQEELTELHKKRGELAQLVIDLNNQMQRKDREMQMNEAKIAECLQTISDLETECLDLRTKLCDLERANQTLKDEYDALQITFTALEGKLRKTTEENQELVTRWMAEKAQEANRLNAENEKDSRRRQARLQKELAEAAKEPLPVEQDDDIEVIVDET | 2
ATG16L1(124 to 247) (domain or fragment, human, UniProt Q676U5 124-247, looked up) MQMNEAKIAECLQTISDLETECLDLRTKLCDLERANQTLKDEYDALQITFTALEGKLRKTTEENQELVTRWMAEKAQEANRLNAENEKDSRRRQARLQKELAEAAKEPLPVEQDDDIEVIVDET | 2
Trx-tagged ATG16L1(78 to 206) (domain or fragment, human, UniProt Q676U5 78-206, looked up) NDNQLQEMAQLRIKHQEELTELHKKRGELAQLVIDLNNQMQRKDREMQMNEAKIAECLQTISDLETECLDLRTKLCDLERANQTLKDEYDALQITFTALEGKLRKTTEENQELVTRWMAEKAQEANRLN | 2
Trx-ATG16L1(78 to 197) (domain or fragment, human, UniProt Q676U5 78-197, looked up) NDNQLQEMAQLRIKHQEELTELHKKRGELAQLVIDLNNQMQRKDREMQMNEAKIAECLQTISDLETECLDLRTKLCDLERANQTLKDEYDALQITFTALEGKLRKTTEENQELVTRWMAE | 2
